Here are results for 17 molecules from patent publication US20250376519A1 (JIANGSU HENGRUI PHARMACEUTICALS, published 2025).

In one assay the target is T1, human DLL3 on cells (human, UniProt Q9NYJ7 27-618).
T1 construct: Endogenous on H1184 and SHP77; Cell line is named under assay; also called H1184; DLL3/H82
T1 sequence: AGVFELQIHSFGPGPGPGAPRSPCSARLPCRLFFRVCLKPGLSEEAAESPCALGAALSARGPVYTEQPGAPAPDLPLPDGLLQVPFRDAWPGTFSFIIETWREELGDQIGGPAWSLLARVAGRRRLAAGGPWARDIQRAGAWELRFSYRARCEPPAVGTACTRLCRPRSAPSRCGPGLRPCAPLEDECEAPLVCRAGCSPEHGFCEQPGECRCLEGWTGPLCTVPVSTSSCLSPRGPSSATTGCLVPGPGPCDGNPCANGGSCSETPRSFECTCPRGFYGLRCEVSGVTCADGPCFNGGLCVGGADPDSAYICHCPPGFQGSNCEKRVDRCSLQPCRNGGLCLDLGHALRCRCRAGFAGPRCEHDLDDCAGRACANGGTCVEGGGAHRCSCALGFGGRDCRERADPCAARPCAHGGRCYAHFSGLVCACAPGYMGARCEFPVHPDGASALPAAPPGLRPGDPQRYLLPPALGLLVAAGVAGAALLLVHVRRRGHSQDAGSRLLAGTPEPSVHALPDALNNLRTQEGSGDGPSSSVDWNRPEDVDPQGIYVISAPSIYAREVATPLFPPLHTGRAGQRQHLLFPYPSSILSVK
Nature of the assay: flow cytometry, DLL3/H82 cells. Details: key to Emax: geometric mean fluorescence intensity (flow cytometry). How it is done: The plates were centrifuged at 300 g for 5 min, and the supernatant was removed. Different concentrations of test antibodies were added at 100 μL/well. The plates were incubated in the dark in a refrigerator at 4° C. for 1 h. After 3 centrifugal washes at 300 g, working concentrations of APC anti-human IgG Fc (BioLegend, 410712) or PE F(ab′)2-goat anti-human IgG (invitrogen, H10104) were added. The plates were incubated in the dark in a refrigerator at 4° C. for 40 min. After 3 centrifugal washes at 300 g, the geometric mean fluorescence intensity was measured on an Invitrogen flow cytometer, and the EC50 values for the binding of the antibodies to DLL3-expressing cells were calculated.

In assay [1] the target is T2, human DLL3 (ACRO, DLL3-H52H4) (human, UniProt Q9NYJ7 27-492).
T2 construct: Bought
T2 sequence: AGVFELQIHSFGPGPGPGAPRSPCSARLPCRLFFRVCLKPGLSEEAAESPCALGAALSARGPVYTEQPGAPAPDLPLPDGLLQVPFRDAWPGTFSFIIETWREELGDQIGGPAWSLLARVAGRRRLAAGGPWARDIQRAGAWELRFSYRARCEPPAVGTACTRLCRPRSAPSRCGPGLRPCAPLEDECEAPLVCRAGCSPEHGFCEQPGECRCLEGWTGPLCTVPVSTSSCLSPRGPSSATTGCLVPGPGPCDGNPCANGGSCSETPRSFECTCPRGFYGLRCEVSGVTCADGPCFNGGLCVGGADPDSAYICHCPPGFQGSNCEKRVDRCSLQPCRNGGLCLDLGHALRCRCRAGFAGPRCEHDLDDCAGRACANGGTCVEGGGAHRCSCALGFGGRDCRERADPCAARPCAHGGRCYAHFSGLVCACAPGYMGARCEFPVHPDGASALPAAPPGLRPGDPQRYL
In words: SPR Biacore 8K, Ab captured on Protein A. From the text:
Test antibodies were affinity-captured with a Protein A biosensor chip (Cat. #29127556, Cytiva) for 18 seconds, and then the antigens human DLL3 (ACRO, DLL3-H52H4), cynomolgus monkey DLL3 (KACTUS, DLL-RM103), mouse DLL3 (KACTUS, DLL-MM103), human CD3D&3E (ACRO, CDD-H52W1), and monkey CD3D&3E (ACRO, CDD-C52W4) were allowed to flow through the surface of the chip for 180 seconds, followed by 600 seconds of dissociation. Reaction signals were detected in real time using a Biacore 8K (Cytiva) instrument to obtain association and dissociation curves. After the dissociation in each experimental cycle, the chip was washed and regenerated with a 10 mM glycine-hydrochloric acid solution (pH 1.5, Cat. #BR-1003-54, Cytiva). Data fitting was performed using a 1:1 Model.

Numbering of substitutions follows the chain as printed.

B1: hu30L2H2 (antibody, human IgG1, kappa)
heavy: not shown
light: DIVMTQSPDSLAVSLGERATINCKASENVGYVSWYQQKPGQPPKLLIYGASNRYTGVPDRFSGSGSATDFTLTISSLQAEDVAVYHCGQSYSYPLTFGQGTKLEIKRTVAAPSVFIFPPSDEQLKSGTASVVCLLNNFYPREAKVQWKVDNALQSGNSQESVTEQDSKDSTYSLSSTLTLSKADYEKHKVYACEVTHQGLSSPVTKSFNRGEC
For the molecule B1, in the assay with human DLL3 on cells, the EC50 (usually the concentration giving half of the maximal effect) turned out to be 0.61 nM and the Emax was determined as 4910. For the same molecule, in assay [1], binding was put at a Kd of 1.01 nM, the koff (usually a measure of how fast the partners let go of each other) stood at 0.000921 s⁻¹ and the kon (usually the second-order rate constant of association) stood at 914000 M⁻¹ s⁻¹.

B2: hu30L1H3 (antibody, human IgG1, kappa, V domains shown)
VH: EVRLVQSGAEVKKPGASVKVSCKASGYTFTDYYMNWVRQAPGQSLEWMGIINPYQGDTSYNQKFRGRVTLTVDKSASTAYMELSSLRSEDTAVYYCARYHYGPHLEGYFDVWGQGTTVTVSS
VL: DIVMTQSPDSLAVSLGERATINCKASENVGYVSWYQQKPGQPPKLLIYGASNRYTGVPDRFSGSGSGTDFTLTISSLQAEDVAVYYCGQSYSYPLTFGQGTKLEIKR
In the case of B2, in the assay with human DLL3 on cells, the EC50 is 0.75 nM and the Emax was determined as 5560. In assay [1], the Kd (in general, the concentration at which binding is half-saturated) stood at 1.99 nM; the koff came to 0.00185 s⁻¹; the kon was 929000 M⁻¹ s⁻¹.

B3: hu30L1H6 (antibody, human IgG1, kappa, V domains shown)
VH: B2 VH with Q55N, G56V
VL: B2 VL
Take B3: in the assay with human DLL3 on cells, a half-maximal response (EC50) required 0.56 nM and the Emax was 5750. In assay [1], this molecule returned a Kd of 1.38 nM, a koff of 0.00143 s⁻¹ and a kon of 1.04e+06 M⁻¹ s⁻¹.

B4: hu30L2H4 (antibody, human IgG1, kappa, V domains shown)
VH: B2 VH with Q55S
VL: B2 VL with G67A, Y86H
B4: in the assay with human DLL3 on cells, the EC50 is 0.54 nM and the Emax worked out at 5440. In assay [1], this molecule gave a Kd of 1.07 nM, a koff of 0.00104 s⁻¹ and a kon of 966000 M⁻¹ s⁻¹.

B5: hu30L1H1 (antibody, human IgG1, kappa, V domains shown)
VH: B2 VH with R3Q, Q55N, L70I
VL: B2 VL
In the assay with human DLL3 on cells, B5 returned an EC50 of 0.74 nM and an Emax of 5870. In assay [1], this molecule came in with a Kd of 0.919 nM, a koff of 0.000787 s⁻¹ and a kon of 857000 M⁻¹ s⁻¹.

B6: hu30L2H6 (antibody, human IgG1, kappa, V domains shown)
VH: B2 VH with Q55N, G56V
VL: B2 VL with G67A, Y86H
In the assay with human DLL3 on cells, B6 came in with an EC50 of 0.69 nM and an Emax of 5420. In assay [1], binding was put at a Kd of 1.08 nM, the koff is 0.000988 s⁻¹ and the kon worked out at 915000 M⁻¹ s⁻¹.

B7: hu30L1H4 (antibody, human IgG1, kappa, V domains shown)
VH: B2 VH with Q55S
VL: B2 VL
As for B7, in the assay with human DLL3 on cells, the EC50 came out at 0.57 nM and the Emax stood at 5360. In assay [1], this molecule came in with a Kd of 1.28 nM, a koff of 0.00116 s⁻¹ and a kon of 905000 M⁻¹ s⁻¹.

B8: hu30L1H9 (antibody, human IgG1, kappa, V domains shown)
VH: B2 VH with M48I, Q55T, V68A
VL: B2 VL
In assay [1], B8 yielded a Kd of 2.34 nM, an off-rate (koff) of 0.000981 s⁻¹ and a kon of 419000 M⁻¹ s⁻¹.

B9: hu30L2H3 (antibody, human IgG1, kappa, V domains shown)
VH: B2 VH
VL: B2 VL with G67A, Y86H
In the assay with human DLL3 on cells, B9 displayed an EC50 of 0.59 nM and an Emax of 4720. Further, in assay [1], the Kd came to 1.41 nM, the koff worked out at 0.00138 s⁻¹ and the kon came out at 981000 M⁻¹ s⁻¹.

B10: hu30L2H5 (antibody, human IgG1, kappa, V domains shown)
VH: B2 VH with Q55T
VL: B2 VL with G67A, Y86H
In the assay with human DLL3 on cells, B10 displayed an EC50 of 0.65 nM and an Emax of 5570. Also, in assay [1], the Kd turned out to be 0.969 nM, the koff came to 0.000907 s⁻¹ and the kon was 935000 M⁻¹ s⁻¹.

B11: hu30L1H2 (antibody, human IgG1, kappa)
heavy: not shown
light: B1 light with A67G, H86Y
In the assay with human DLL3 on cells, B11 came in with an EC50 of 0.86 nM and an Emax of 6050. In addition, in assay [1], the affinity, expressed as Kd, was 1.32 nM; the koff was determined as 0.00131 s⁻¹; the kon was 989000 M⁻¹ s⁻¹.

B12: hu30L1H11 (antibody, human IgG1, kappa, V domains shown)
VH: B2 VH with S7F, E10V, Q55T, A76S, R87T
VL: B2 VL
Take B12: in assay [1], the Kd is 2.83 nM, the koff came to 0.00117 s⁻¹ and the kon stood at 414000 M⁻¹ s⁻¹.

B13: hu30L2H1 (antibody, human IgG1, kappa, V domains shown)
VH: B2 VH with R3Q, Q55N, L70I
VL: B2 VL with G67A, Y86H
On to B13, for which, in the assay with human DLL3 on cells, a half-maximal effect (EC50) was put at 0.89 nM and the Emax was 5740. In assay [1], this molecule registered a Kd of 0.658 nM, a koff of 0.000571 s⁻¹ and a kon of 867000 M⁻¹ s⁻¹.

B14: hu30L4H10 (antibody, human IgG1, kappa, V domains shown)
VH: B2 VH with A40S, P41H, Q55T
VL: DIQMTQSPSSLSASVGDRVTITCKASENVGYVSWYQQKPGKAPKLLIYGASNRYTGVPSRFSGSGSGTDFTLTISSLQPEDFATYYCGQSYSYPLTFGQGTKLEIKR
Turning to B14, in assay [1], the Kd is 2.16 nM, the koff amounted to 0.000919 s⁻¹ and the kon was 427000 M⁻¹ s⁻¹.

B15: hu30L5H11 (antibody, human IgG1, kappa, V domains shown)
VH: B2 VH with S7F, E10V, Q55T, A76S, R87T
VL: B14 VL with A42S, S59D, Q99S
In assay [1], B15 had a Kd of 3.06 nM, a koff of 0.0012 s⁻¹ and a kon of 391000 M⁻¹ s⁻¹.

B16: hu30L5H8 (antibody, human IgG1, kappa, V domains shown)
VH: B2 VH with S7F, E10V, Q55T, A76S
VL: B14 VL with A42S, S59D, Q99S
Take B16: in assay [1], binding was put at a Kd of 2.54 nM, the koff stood at 0.00102 s⁻¹ and the kon came out at 400000 M⁻¹ s⁻¹.

B17: hu30L5H10 (antibody, human IgG1, kappa, V domains shown)
VH: B2 VH with A40S, P41H, Q55T
VL: B14 VL with A42S, S59D, Q99S
In assay [1], B17 yielded a Kd of 2.05 nM, a koff of 0.000949 s⁻¹ and a kon of 464000 M⁻¹ s⁻¹.
